Test: soluble on expression in E. coli; label from the status in PepcDB or PDB records

| Sequence | soluble on expression in E. coli |
| --- | --- |
| QKPYKETYGISHITRHDMLQIPEQQKNEKYQVPEFDSSTIKNISSAKGLDVWDSWPLQNADGTVANYHGYHIVFALAGDPKNADDTSIYMFYQKVGETSIDSWKNAGRVFKDSDKFDANDSILKDQTQEWAGSATFTSDGKIRLFYTDFSGKHYGKQTLTTAQVNVSASDSSLNINGVEDYKSIFDGDGKTYQNVQQFIDEGNYSSGDNHTLRDPHYVEDKGHKYLVFEANTGTEDGYQGEESLFNKAYYGKSTSFFRQESQKLLQSDKKRTAELANGALGMIELNDDYTLKKVMKPLIASNTVTDEIERANVFKMNGKWYLFTDSRGSKMTIDGITSNDIYMLGYVSNSLTGPYKPLNKTGLVLKMDLDPNDVTFTYSHFAVPQAKGNNVVITSYMTNRGFYADKQSTFAPSFLLNIKGKKTSVVKDSILEQGQLTVN | soluble |
| NYRSRAAYKLIELDNKYLFLKKNKIILDIGCYPGSWCQVILERTKNYKNKIIGIDKKIMDPIPNVYFIQGEIGKDNMNNIKNINYIDNMNNNSVDYKLKEILQDKKIDIILSDAAVPCIGNKIDDHLNSCELTLSITHFMEQYINIGGTYIVKMYLGSQTNNLKTYLKGMFQLVHTTKPKASRNESREIYLVCKNFLGRKK | soluble |
| MAHHHHHHMDVLGTCTALVATLQEPQEDIQSRDHYELVLLDGPSLPIVGVSSTGGLLAATSAASAAAAATAAVAAADDTMSSTEAAKESASDSDAAVTRVKTTIDLHQAFARFQRTDSAENYLLDVVYVGDCTMMLIRNGRVCYVTEEQAHQLDYPYQLGTGSNDTPKDGVRLLIPVEKGDIVVMGTDGIFDNLYPHRIVELIWPHLERVFSQHGYLQALGGAETAKAPANAVSYVKNRNLRTLLDDIMAALDMGANAVMADAMTVSRDVRCDSPYASKCIENGALFEGGKPDDMTLLISVIGESDDGEPSEQFSGSETAFPLPYRDWP | not soluble |
| DITEIEEAMNRQRVAGRVFEASQDGLIVLNHKGVITMVNPAVTKLVGLEIDQLVGQSFIQTIRWRKLQEMMPSIIESIENYGVWQGEVIEQNHLGLLVPMFARVNRIVKCENNGFYDLVIILTD | not soluble |
| AIASERLYYFVIVGRDDRVLYDLLYPASLSELDWRTSSELSSPAERGDFEPHHFIPSIQVLLQFVAYSALDHIEEKYWLTSARSLKHIFRFRDWSASVQLTPNAATRFVLVHGASDDASRNVRAFLHAVYEAYVPHVVCNPFQEEDAPITSKRFHEVAKNLAKRYFSG | soluble |
| MHVDPIVEALIIRRKEHGLSREQMANIAGMSVKTYQRIERGESDLKLSQYRSILRSLNLTDLDIALDIRGIEHVTAEDLVTVARLLSPEAQSLLVRLLSLVLEQRSDPNAS | not soluble |
| SLETFHFNYTLISICIYLYIYDGSFISLSEDHKPYNKKEKERIYKIGGFVENGRILGYIGVSRSFGDKNYKIKSDCPYNPHETMISCIPDIKIFYANCDDILFLGCDGLFEMLSWNDVAKFTYDCMNRHTLSDAVINILDYALLSGSKDNITIQIIKFFNE | soluble |
| MFSLLRKSLKSPAPKKVVPSQRTVSVAGRQVPITVRENPRATRITLRIEPGGRALKLTIPMGLHHRQVDDFLERHQGWLEGKLLKFSPDDGLRPGATIDIRGISHRIEHTGSLRGLTHIAKDADGVAVLKVSGAPEHLRRRIATFLKKEAKADLERLVAIHGRAAGRPVRSISMKDTRSRWGSCSHDGNLSFSWRIVMAPDRVIDYLAAHEVAHLSEMNHGPKFWALCEKLCPHTSEAKDWLKRHGSKLHAIDFDLEHHHHHH | not soluble |
| MTDSRTHLRLQIRQRRQSLSAFEQQTASQQLIHTFASLPEVTAAQRIALYLANDGELNTQPLIEWLWQQGKQVYLPVLHPFAKGHLLFLHYHTHTPMNKNRYGIAEPKLDQRLICPVRELDIIGTPLVAFDQSGQRLGMGGGYYDRTLAPWFKTQQGAMPIGLAHDCQQVEQLPTASWDIPLRKIVTPSKVWQWLEHHHHHH | not soluble |
| MAHHHHHHMLNITRLRNLPEDLFEVDRRQKNGSNQSGKGWPQHKELIFDFTSLVRAYNQNKFEHLTDTFNNNRILISELVLHQLDEKNKVVRSTDAANAQEDDFHPVRLRDLINFLVTNMTESWLEFQRKGTQEDKQFTQLRCLNENVETPLRLISYALYKKRQGKDVLLVTSDSGLKCEAGLNSIDSQSIENIG | not soluble |
| MGSDKIHHHHHHMLKDFAKLETFLIVVRERSFSKASAKLGISQPAVTQQIKYIEEYLDTKIIERKKNGVKLTKDGEKLLTIALRLERAIVTAEKETMKIIKKDFSFNIGASFTIGNYILPNCLGNIKEMIKNDVFVKIDSSDNIIEALIEKKIDLALIESPIFKDNIVYREWVEDEFVLFSNSPLPKTVKKEDLLTFSWICREWGSNTRRIINETLDDVGIDCTTFDIKGVVSSSTGVKHTVLKSPKFPEESPKPTVAILSKYVVQDDLVNNSLHESKIRGCKLKRKLYLAYLKDRKNDAFVDTVSSCLMCNKNLG | not soluble |
| MGSDKIHHHHHHMTARNILSYSYEEYVEKITAFHGYPAPGVLIGGFMVDLAVKNLPEGILYDAICETRTCLPDAVQLLTPCTFGNGWLTVLPMGLFAVSLYDKFTGEGVRVFLDVEKMGPWQEIRNWFLKLKTKKEQDSERLFKEIREAGPDILELRNVKLKPGFLEKKHKGKIVLCPQCREAYPAQDGELCLSCQGGSPYL | not soluble |
| MGSDKIHHHHHHMNELTEFNARNDLDNELASTVSDILAKAIKEKGKASIAVSGGSTPKGFFSVLSQSDIDWSKVTITLADERWVPIDSEASNTRLVHENLLQNKAEKAKFFHLKQGDELTDETLEDLNVAASKILLPLDVLILGMGEDGHTASLFPCSDQITSGLDETNDAALLKVQPKTAPHQRISFTFASLMTSKNIFLHSCGEGKKTVLTQVLNGDDPFEMPIRAFLQHPSLNTQIFWAP | not soluble |
| MNNSLIVRQLGLQDYQEIWHKMQDFTDTRNAETQDEIWLVQHYPVFTQGQAGKPEHLLQRSEIPVVQSVRGGQITYHAPGQQVMYVLIDIKRHKNLNVRQLVTALEQTVVKTLAEYGIESYPKPDAPGVYVDGKKICSLGLRIRRGCSFHGLALNINMDLNPFHYINPCGYAGLEMCQLADFVNQDKADCDNVSAKLIKHFANLLGYNITTLLEHHHHHH | soluble |
| LSCLTPDNKPGKCVNIKKCTHLAEIEEDPIGEDETTYLKNSVCAGPEDNSVCCG | soluble |
| MGSPTAEELTGCLFFSPDDGRIWLNDQRMLLLHSSSFGTLRREIIERLGQEPARGMFTRAGYLSGARDARLIRERWPLADATSAFRAGTHLHTLEGMAKVESLHFKFDAESGFYEGEFLWHNSCEADEHLAACGTGQDPVCWTEIGYAIGFVSGLFGQMVIFREVECRGMGHASCRVIGKTAEQWGDVERDLSYLSVAKTVAPAHTPALANAHYDAGPPTGTDQPLIGASAAFNAATQALQRVAMTPATVLISGESGVGKEMFARQLHQLSRNREGPFVALNCAAIPDNLIEAELFGVERGAYTGATHSRPGRFERANGGTLFLDEITSLSLAGQSKLLRALQEREIERVGGGHGIKVNVRVVAATNVDLRKAVAEGDFREDLFYRLNVYPIALPPLRERRDDIPLLINAFLQRFCHEYGRTPAGLTMRALKTLLRYDFAGNVRELQNLIERGLIASDEGQAIDLVHIFRNESLPVDSYSLNHDGALSKAAPPIAHTAQGAALLDTLSQEKQAFSIEELEQQLIREALEKSAGNLAAASRLLGLSRAQFA | not soluble |
| MVRPPPFEFRPARPPGTRALQLEVITNIIWENAPMADLDALRSRFAHALAGATAPGATAGAGPGSGPDPAPYADNLLARWQEPQRRYHTLAHLTAVLDRVDVLAEHADDVAVVRLAAWFHDAVYQPDRSENEERSARLAERALPEAGVPAAKTAEVARLVRLTVTHAPAGDDRDGQVLCDADLAVLASPPSAYAAYTAAVREEYHFVPNEAFREGRAAILRQLLDLPSLFHTPYGRQEWEATARHNLTGELEMLSLPDTPDVLEHHHHHH | not soluble |
| MTLDLDNMTQAEFDEVMAEIQLQSPNIFQLISDFVNKKVTSVEIDDLLNMKRAETGKALSPLQIQELQYMLEDFSPELIHEALKEAVSQGKANFAYIKVILNRWKQDNLLTVELVRNSRAAREAKKQQTNQLEPTSYEDWIPTQEKPF | not soluble |
| QGMQTKKAFLYVFNTMSDWEYGYLIAELNSGRYFKKDLAPLKVITVGANKEMITTMGGLRIKPDISLDECTLESKDLLILPGGTTWSEEIHQPILERIGQALKIGTIVAAICGATDALANMGYLDTRKHTSNNLEYTKMVCPNYKGEKFYELGPAVSDANLVTASGIAPLEFAMEVLKKIDVFTLDALHSWYNLNKTHKPEYFFQLMNSINK | soluble |
| MSLSNLINGKIPNQAIQTLKIVKDLFGSSIVGVYLFGSAVNGGLRINSDVDVLVVVNHSLPQLTRKKLTERLMTISGKIGNTDSVRPLEVTVINRSEVVPWQYPPKREFIYGEWLRGEFENGQIQEPSYDPDLAIVLAQARKNSISLFGPDSSSILVSVPLTDIRRAIKDSLPELIEGIKGDERNVILTLARMWQTVTTGEITSKDVAAEWAIPLLPKEHVTLLDIARKGYRGECDDKWEGLYSKVKALVKYMKNSIETSLNEGHHHHHH | soluble |
| MEQAMLKTLALLVLGMHYWCATGFPVYDYDPSSLQEALSASVAKVNSQSLSPYLFRATRSSLKRVNVLDEDTLVMNLEFSVQETTCLRDSGDPSTCAFQRGYSVPTAACRSTVQMSKGQVKDVWAHCRWASSSESNSSEEMMFGDMARSHRRRNDYLLGFLSDESRSEQFRDRSLEIMRRGQPPAHRRFLNLHRRARVNSGFE | soluble |
| MGSSHHHHHHMDRYEIKGVDVASYQGDIDWRELEKQNMKFAFIKATEGSAFVDKYFSKNWTNANKTSMRVGAYHFFSFDSKGETQAEQFIRNVPKYKQALPPVIDVEFYANKKDNPPKREDVTKELSVMIEMLEKHYGKKVILYATQEAYDLYIKDAYPQCDIWIRSVLTKPSLSDERKWTFWQYTNRGKLSGYNGKEKYIDLNVFYGNEEEFENYGMKD | soluble |
| MSLNETYMMITFQSGMDYWKRCLKGFEDAAQALNVTVEYRGAAQYDIQEQITVLEQAIAKNPAGIAISAIDPVELTDTINKAVDAGIPIVLFDSGAPDSHAHSFLGTNNYNAGMNAAYKMAELLDGEGEVAVITLPNQLNHQERTTGFKETLEAEFPAIEVIAVEDGRGDSLHSRRVAHQLLEDYPNLAGIFATEANGGVGVGDAVRLESRAGEIQIISFDTDKGTLDLVDEGIISATLAQGTWNMGYWSLTYLFHLHHGLTEPQILQTREEAPLPLYVDTGITIVTDENVDYYYADEGHHHHHH | soluble |
| MGSDKIHHHHHHMRTPVPRVAAIHDLSGFGRTSLTVAMPVLSSMGVQVCPLPTAVLSTHTSGFENFSFVDLTEQMHSILDHWQSLNLKFDAVYSGFLGSPEQVDIVARCIDMFRTPDGLAVVDPVMGDNGEMEPTMTLEMVHRMRWLVTKADIITPNFTEAAFLLDEKYTTEATVSTVKDWLRRLTAMGPSIAIITSVPVHGDERRSAVMAYNRRHDRFWKVDCSYIPAHYPGTGDTFASVVTGALLQGDSLPIAMDRAVQFVTMGIRATFGHNLPSRDGILLERVLDTLRAPVTSSSFELLDNDGEQCACR | not soluble |
| LPLCFADASGTLRYVNDRFTRLFGYAPEDIPTQEEWWSRVCTDGRCRGETADAWQASVQRGPNGASDIEPAEFRVACKNGDIRLVEVSGITIEGTVLATFIDI | not soluble |

Source: the DeepSol protein solubility set
